Entries after “also recorded” stand apart in the source; their conditions may differ. Like-named read-outs stand apart in the source and are kept apart here.
Columns and labels:
[1] = test system: H292-HGF human lung cancer xenograft; test: Efficacy of bispecific molecule and other inhibitors in subcutaneous H292-HGF xenograft model; type: in vivo, SCID/Beige mice; conditions: for mean tumor size: ECB38 25 mg/kg; for antitumor activity (in words): doses as in E46
Method: The H292-HGF cells were maintained in vitro in RPMI1640 medium supplemented with fetal bovine serum (10% v/v), and L-glutamine (2 mM) at 37° C. in an atmosphere of 5% CO2 in air. The cells were routinely subcultured twice weekly by trypsin-EDTA treatment. The cells growing in an exponential growth phase were harvested and counted for tumor inoculation.
Each mouse was inoculated subcutaneously at the right flank region with H292-HGF tumor cells (2×10^6) in 0.1 ml of PBS with cultrex (1:1) for tumor development. The treatments were started when the mean tumor size reached 139 mm^3. […] The date of tumor cell inoculation was denoted as day 0.
Before commencement of treatment, all animals were weighed and the tumor volumes were measured. Since the tumor volume can affect the effectiveness of any given treatment, mice were assigned into groups using randomized block design based upon their tumor volumes. […] The randomized block design was used to assign experimental animals to groups. First, the experimental animals were divided into homogeneous blocks according to their initial tumor volume. Secondly, within each block, randomization of experimental animals to treatments was conducted.
The major endpoint was whether tumor growth can be delayed or tumor bearing mice can be cured. Tumor size was measured twice weekly in two dimensions using a caliper, and the volume was expressed in mm^3 using the formula: V=0.5 a×b^2 where a and b are the long and short diameters of the tumor, respectively. The tumor size was then used for calculations of both T−C and T/C values. T−C was calculated with T as the time (in days) required for the mean tumor size of the treatment group to reach 1000 mm^3, and C was the time (in days) for the mean tumor size of the control group to reach the same size. The T/C value (in percent) was an indication of antitumor efficacy; T and C were the mean volume of the treated and control groups, respectively, on a given day. Complete tumor regression (CR) is defined as tumors that are reduced to below the limit of palpation (62.5 mm^3). Partial tumor regression (PR) is defined as tumors that are reduced from initial tumor volume. A minimum duration of CR or PR in 3 or more successive tumor measurements is required for a CP or PR to be considered durable.
Statistical analyses of difference in tumor volume among the groups were evaluated using a one-way ANOVA followed by individual comparisons using Games-Howell (equal variance not assumed). All data were analyzed using SPSS 18.0. p<0.05 was considered to be statistically significant.

[2] = Body weight and tolerability in the H292-HGF xenograft study; conditions: for toxicity / body weight loss / tolerability (in words): doses as in E46
Method: (§2) At the time of routine monitoring, the animals were checked for any effects of tumor growth and treatments on normal behavior, such as mobility, visual estimation of food and water consumption, body weight gain/loss (body weights were measured twice weekly), eye/hair matting and any other abnormal effect.
(§3) Animals for which the body weight loss exceeded 20%, or for which the mean tumor size of the group exceeds 2000 mm^3 were euthanized. The study was terminated after two weeks of observation after the final dose.

[3] = biological target: T1, EGFR (Homo sapiens, UniProt P00533); test: Inhibition of EGFR phosphorylation in NCI-H292 cells; type: cell-based; conditions: FIG. 7A
Method: (§1) NCI-H292, NCI-H441, or NCI-H596 cells were plated in 96 well plates in RPMI medium containing 10% FBS. 24 hours later, medium was replaced with serum free RPMI. […] Cells were treated for 1h with the monospecific or bispecific molecules and then stimulated with EGF, HGF, or a combination of EGF and HGF for 15 minutes at 37° C., 5% CO2. Cells were lysed with MSD Lysis Buffer and cell signaling was assessed using appropriate MSD Assay plates, according to manufacturer's instructions, as described above.
Purified bispecific PEG24-maleimide conjugates were tested for their ability to inhibit EGF-stimulated phosphorylation of EGFR in the human tumor cell line NCI-H292 (American Type Culture Collection, cat. #CRL-1848) using the EGFR phospho(Tyr1173) kit from Meso Scale Discovery (Gaithersburg, Md.) and as described in Example 3.

[4] = biological target: T1, EGFR; test: Inhibition of EGFR phosphorylation in NCI-H596 cells; type: cell-based; conditions: FIG. 7B
Method: as §1

[5] = biological target: T1, EGFR; test: Inhibition of EGFR phosphorylation in NCI-H441 cells; type: cell-based; conditions: FIG. 7C
Method: as §1

[6] = test system: H292-HGF tumor xenografts; test: Tumor efficacy study with bispecific EGFR/c-Met molecules of variable affinity; type: in vivo, SCID Beige mice; conditions: 25 mg/kg three times per week
Method: One week after implantation, mice were stratified into groups with equivalent tumor volumes (mean tumor volume=77.9+/−1.7 mm^3). Mice were dosed three times per week with the bispecific molecules and tumor volumes were recorded twice weekly.

[7] = mouse, in vivo, ip
Method: SCID Beige mice were subcutaneously inoculated with NCI-H292 cells expressing human HGF (2.0×10^6 cells in Cultrex (Trevigen) in a volume of 200 μL) on the dorsal flank of each animal. Tumor measurements were taken twice weekly until tumor volumes ranged between 150-250 mm^3. […] At 6h or 72h after dosing, tumors were extracted and immediately frozen in liquid nitrogen. […] Immediately after collection, the blood samples were centrifuged and the resulting plasma was transferred to sample tubes and stored at −80° C. Tumors were weighed, cut into small pieces, and lysed in Lysing Matrix A tubes (LMA) containing RIPA buffer with HALT protease/phosphatase inhibitors (Pierce), 50 mM sodium fluoride (Sigma), 2 mM activated sodium orthovanadate (Sigma), and 1 mM PMSF (MesoScale Discovery). Lysates were removed from LMA matrix and centrifuged to remove insoluble protein. The soluble tumor protein was quantified with a BCA protein assay and diluted to equivalent protein levels in tumor lysis buffer. Phosphorylated c-Met, EGFR and ERK were measured using assay plates from MesoScale Discovery (according to Manufacturer's protocol and as described above).

[8] = mouse, in vivo
Method: as §2, §3

[9] = test system: H292 cells; test: Inhibition of proliferation of H292 cells (HGF-induced); type: cell-based, human
Excerpt: Inhibition of tumor cell proliferation can be measured using standard methods and methods described herein.
It was verified that the enhanced potency for inhibition of EGFR and c-Met phosphorylation with the bispecific EGFR/c-Met molecules translated into an enhanced inhibition of signaling and proliferation. […] The proliferation assay was completed using different combinations EGFR and c-Met binding FN3 domains either as a mixture or linked in a bispecific format. […] This confirmed that the avidity effect observed at the level of the receptors (FIG. 6 and FIG. 7) translates into an improvement in inhibiting cell signaling (Table 17) and cell proliferation (Table 18).
Select EGFR/c-Met molecules were characterized for their affinity to both EGFR and c-Met, their ability to inhibit EGFR and c-Met autophosphorylation, and their effect on proliferation of HGF cells. Binding affinity of the bispecific EGFR/c-Met molecules to recombinant EGFR and/or c-Met extracellular domain was further by surface Plasmon resonance methods using a Proteon Instrument (BioRad) according to protocol described in Example 3.

[10] = day 23 after tumor inoculation, Crizotinib 50 mg/kg, Erlotinib 50 mg/kg, Cetuximab 1 mg/mouse

Question: Which “Tumor volume (mm^3)” value ([1]; day 9 after tumor inoculation, mean ± SEM, bispecific 25 mg/kg, Crizotinib 50 mg/kg, Erlotinib 50 mg/kg, Cetuximab 1 mg/mouse) does the source give for `C[C@@H](Oc1cc(-c2cnn(C3CCNCC3)c2)cnc1N)c1c(Cl)ccc(F)c1Cl` [Crizotinib, crizotinib] here?
Answer: 217 ± 20 mm^3

Question: What about the “Tumor volume (mm^3)” value ([1]; day 13 after tumor inoculation, mean ± SEM, bispecific 25 mg/kg, Crizotinib 50 mg/kg, Erlotinib 50 mg/kg, Cetuximab 1 mg/mouse) of the same molecule?
Answer: 547 ± 43 mm^3

Question: And the “Tumor volume (mm^3)” value ([1]; day 16 after tumor inoculation, mean ± SEM, bispecific 25 mg/kg, Crizotinib 50 mg/kg, Erlotinib 50 mg/kg, Cetuximab 1 mg/mouse)?
Answer: 914 ± 92 mm^3

Question: And the “Tumor volume (mm^3)” value ([1]; day 20 after tumor inoculation, mean ± SEM, bispecific 25 mg/kg, Crizotinib 50 mg/kg, Erlotinib 50 mg/kg, Cetuximab 1 mg/mouse)?
Answer: 1438 ± 239 mm^3

Question: What about the “T/C (%)” value ([1]; day 23, mean volume of treated vs control group, doses as in the Treatment column) of the same molecule?
Answer: 120%

Question: What about the “Tumor Size (mm^3) at day 23” value ([1]; day 23, mean ± SEM, bispecific 25 mg/kg, Crizotinib 50 mg/kg, Erlotinib 50 mg/kg, combination 50 mg/kg + 50 mg/kg, Cetuximab 1 mg/mouse) of the same molecule?
Answer: 2102 ± 298 mm^3

Question: What about the mean tumor size [1, 10] of the same molecule?
Answer: 2,102 mm^3

Question: And the “Tumor volume (mm^3)” value ([1]; day 23 after tumor inoculation, mean ± SEM, bispecific 25 mg/kg, Crizotinib 50 mg/kg, Erlotinib 50 mg/kg, Cetuximab 1 mg/mouse)?
Answer: 2102 ± 298 mm^3

Question: What about the “antitumor activity (in words)” value [1] of the same molecule?
Answer: no antitumor activity

Question: And the “toxicity / body weight loss / tolerability (in words)” value [2]?
Answer: More severe body weight loss

Question: For `C#Cc1cccc(Nc2ncnc3cc(OCCOC)c(OCCOC)cc23)c1` [Erlotinib, erlotinib], which “toxicity / body weight loss / tolerability (in words)” value [2] is on record?
Answer: More severe body weight loss

B1: ECB5: bispecific SEQ ID 54: P53A1R5-17V2, (GGGGS)4, P114AR7P94-A3 (protein)
chain: MLPAPKNLVVSEVTEDSARLSWADPHGFYDSFLIQYQESEKVGEAIVLTVPGSERSYDLTGLKPGTEYTVSIYGVHNVYKDTNMRGLPLSAIFTTGGGGSGGGGSGGGGSGGGGSMLPAPKNLVVSRVTEDSARLSWTAPDAAFDSFWIRYFEFLGSGEAIVLTVPGSERSYDLTGLKPGTEYVVNIMGVKGGKISPPLSAIFTT
modifications: bispecific EGFR/cMet binding molecule
Question: With B1 as the molecule, how does the “inhibition of phosphorylation of EGFR, bispecific vs monospecific (in words)” value [3] read?
Answer: comparable

Question: And the “inhibition of phosphorylation of EGFR, bispecific vs monospecific (in words)” value [4]?
Answer: comparable

Question: What about the “decrease of IC50 for inhibition of EGFR phosphorylation compared to the monospecific EGFR-binding FN3 domain” value [5] of the same molecule?
Answer: 30 fold

B2: ECB39: bispecific SEQ ID 121: P53A1R5-17V2, (AP)5, P114AR7P94-A3, linked to albumin binding domain (protein)
chain: MLPAPKNLVVSEVTEDSARLSWADPHGFYDSFLIQYQESEKVGEAIVLTVPGSERSYDLTGLKPGTEYTVSIYGVHNVYKDTNMRGLPLSAIFTTAPAPAPAPAPLPAPKNLVVSRVTEDSARLSWTAPDAAFDSFWIRYFEFLGSGEAIVLTVPGSERSYDLTGLKPGTEYVVNIMGVKGGKISPPLSAIFTTAPAPAPAPAPLAEAKVLANRELDKYGVSDYYKNLINNAKTVEGVKALLDEILAALP
modifications: Bispecific EGFR/c-Met binding molecule
Question: With B2 as the molecule, how does the “tumor growth / tumor growth inhibition (in words)” value [6] read?
Answer: showed the most efficacy

Question: What about the “tumor accumulation (in words)” value [7] of the same molecule?
Answer: significantly more tumor accumulation at 6 hours relative to the other molecules

B3: ECB38: bispecific SEQ ID 120: P54AR4-83V2, (AP)5, P114AR7P94-A3, linked to albumin binding domain (protein)
chain: MLPAPKNLVVSEVTEDSARLSWDDPWAFYESFLIQYQESEKVGEAIVLTVPGSERSYDLTGLKPGTEYTVSIYGVHNVYKDTNMRGLPLSAIFTTAPAPAPAPAPLPAPKNLVVSRVTEDSARLSWTAPDAAFDSFWIRYFEFLGSGEAIVLTVPGSERSYDLTGLKPGTEYVVNIMGVKGGKISPPLSAIFTTAPAPAPAPAPLAEAKVLANRELDKYGVSDYYKNLINNAKTVEGVKALLDEILAALP
modifications: Bispecific EGFR/c-Met binding molecule
Question: For B3, which “tumor growth / tumor growth inhibition (in words)” value [6] is on record?
Answer: showed the most efficacy

Question: And the mean tumor size [1, 10]?
Answer: 23 mm^3

Question: What about the “antitumor activity (in words)” value [1] of the same molecule?
Answer: complete tumor regression (CR) in all mice; also recorded: complete response

Question: What about the “toxicity / body weight loss / tolerability (in words)” value [8] of the same molecule?
Answer: Slight toxicity

Question: What about the “mice euthanized when BWL>20% during the treatment period” value ([2]; 25 mg/kg) of the same molecule?
Answer: 3 mice

Question: What about the “mice in which the treatment was tolerated” value ([2]; 25 mg/kg, 3 times/week x 3 weeks) of the same molecule?
Answer: 7 out of 10

B4: ECB107: bispecific SEQ ID 66: P54AR4-83V23, (AP)5, P114AR9P121-A6v2 (protein)
chain: MLPAPKNLVVSEVTEDSARLSWDDPHAFYESFLIQYQESEKVGEAIVLTVPGSERSYDLTGLKPGTEYTVSIYGVHNVYKDTNIRGLPLSAIFTTAPAPAPAPAPLPAPKNLVVSRVTEDSARLSWTAPDAAFDSFWIRYFEFVGSGEAIVLTVPGSERSYDLTGLKPGTEYVVNILGVKGGSISPPLSAIFTT
modifications: bispecific EGFR/cMet binding molecule
Question: With B4 as the molecule, how does the IC50 [9] read?
Answer: 2.64 µM

B5: ECB108: bispecific SEQ ID 67: P54AR4-83V23, (AP)5, P114AR9P122-A7v2 (protein)
chain: MLPAPKNLVVSEVTEDSARLSWDDPHAFYESFLIQYQESEKVGEAIVLTVPGSERSYDLTGLKPGTEYTVSIYGVHNVYKDTNIRGLPLSAIFTTAPAPAPAPAPLPAPKNLVVSRVTEDSARLSWTAPDAAFDSFWIRYFEFVSKGDAIVLTVPGSERSYDLTGLKPGTEYVVNILGVKGGSISPPLSAIFTT
modifications: bispecific EGFR/cMet binding molecule
Question: Which IC50 [9] does the source give for B5 here?
Answer: 11.4 µM

B6: ECB109: bispecific SEQ ID 68: P54AR4-83V23, (AP)5, P114AR7P95-C5V2 (protein)
chain: MLPAPKNLVVSEVTEDSARLSWDDPHAFYESFLIQYQESEKVGEAIVLTVPGSERSYDLTGLKPGTEYTVSIYGVHNVYKDTNIRGLPLSAIFTTAPAPAPAPAPLPAPKNLVVSRVTEDSARLSWTAPDAAFDSFWIRYFEFLGSGEAIVLTVPGSERSYDLTGLKPGTEYVVNILSVKGGSISPPLSAIFTT
modifications: bispecific EGFR/cMet binding molecule
Question: For B6, which IC50 [9] is on record?
Answer: 0.574 µM
